This is an account of results in patent US6676941B2 (Board of Regents, The University of Texas System, priority 1999, dated 2004).

In the assay the test system is Bend3 mouse endothelial cells; ABAE; HUVEC. Kind of assay: Direct binding of biotinylated 6-His endostatin to endothelial cells. The class given is cell-based, bovine, human. The note with it: streptavidin-peroxidase detection. An excerpt:
Binding was detected using streptavidin-peroxidase in conjunction with O-phenylenediamine (OPD) and the absorbance read at 490 nm.

B1: endostatin (protein, UniProt P39060 1572-1754, looked up)
Endostatin: HSHRDFQPVLHLVALNSPLSGGMRGIRGADFQCFQQARAVGLAGTFRAFLSSRLQDLYSIVRRADRAAVPIVNLKDELLFPSWEALFSGSEGPLKPGARIFSFDGKDVLRHPTWPQKSVWHGSDPNGRRLTESYCETWRTEAPSATGQASSLLGGRLLGQSAASCHHAYIVLCIENSFMTASK
modifications: Endostatin
As to B1, the “Binding to endothelial cells in vitro” value is “bound in a saturable fashion”.
